Data taken from patent US20210047426A1 (MacroGenics, published 2021).

What was measured:
[1] = biological target: T1, Human CD123 on the surface of leukemic cell lines (human, UniProt P26951 19-378); assay: FACS on Molm-13 cells, detection with a monoclonal antibody to the E-coil/K-coil region
T1 construct: whole, on cells; also called CD123 on Molm-13, Kasumi-3, THP-1, TF-1 and RS4-11 cells

[2] = biological target: T2, Human CD123-His (soluble human IL3R-alpha) (human, UniProt P26951 19-305, limits assumed); assay: bifunctional ELISA, plate coated with human CD123, detection with human CD3-biotin and streptavidin-HRP
T2 construct: also called interleukin 3 receptor alpha chain; not shown: His tag
T2 sequence (looked up): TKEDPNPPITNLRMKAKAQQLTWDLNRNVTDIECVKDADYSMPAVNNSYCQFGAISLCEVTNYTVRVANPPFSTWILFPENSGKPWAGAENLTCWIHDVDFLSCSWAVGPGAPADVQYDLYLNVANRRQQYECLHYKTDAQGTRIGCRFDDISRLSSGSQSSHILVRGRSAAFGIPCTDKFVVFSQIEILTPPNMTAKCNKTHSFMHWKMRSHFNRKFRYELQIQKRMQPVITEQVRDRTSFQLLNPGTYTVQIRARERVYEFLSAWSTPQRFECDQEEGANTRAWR
Procedure: (§1) A MaxiSorp ELISA plate (Nunc) coated overnight with the soluble human or cynomolgus IL3R-alpha (0.5 μg/mL) in bicarbonate buffer was blocked with 0.5% BSA; 0.1% Tween-20 in PBS (PBST/BSA) for 30 minutes at room temperature. […] HRP activity was detected by conversion of tetramethylbenzidine (BioFX) as substrate for 5 min; the reaction was terminated with […] of 1% […] and the absorbance read at 450 nm.

[3] = biological target: T1, Human CD123 on the surface of leukemic …; assay: cell-based or functional assay
[4] = biological target: T2, Human CD123-His (soluble human …); assay: BIACORE surface plasmon resonance, purified human CD123 captured and immobilized, 1:1 binding fit
From the text: (§2) BIACORE™ analyses measure the dissociation off-rate, kd. The binding affinity (KD) between an antibody and its target is a function of the kinetic constants for association (on rate, ka) and dissociation (off-rate, kd) according to the formula: KD=[kd]/[ka]. The BIACORE™ analysis uses surface plasmon resonance to directly measure these kinetic parameters. Recombinant human or cynomolgus monkey CD3 was directly immobilized to a support. Purified human or cynomolgus monkey CD123 was captured and immolbilized to a support. The time course of dissociation was measured and a […] of the data conducted. Binding constants and affinity were obtained using a 1:1 binding fit.

[5] = biological target: T3, Cynomolgus CD123-His (soluble cynomolgus IL3R-alpha) (cynomolgus monkey); assay: BIACORE surface plasmon resonance, purified cynomolgus monkey CD123 captured and immobilized, 1:1 binding fit
T3 construct: also called cynomolgus monkey CD123; monkey CD123
From the text: as §2

[6] = biological target: T3, Cynomolgus CD123-His (soluble …); assay: SPR (BIAcore 3000), antigen immobilized on the chip, DART-A injected, 1:1 Langmuir fit, mean of 3 experiments
Procedure: (§3) Briefly, the carboxyl groups on the CMS sensor chip were activated with an injection of 0.2M N-ethyl-N-([…]) carbodiimide and 0.05M N-hydroxy-succinimide. Soluble CD3 or CD123 (1 μg/ml) was injected over the activated CMS surface in 10 mM sodium-acetate, pH 5.0, at flow rate 5 μL/min, followed by 1 M ethanolamine for deactivation. Binding experiments were performed in 10 mM HEPES, pH 7.4, 150 mM NaCl, 3 mM EDTA and 0.005% P20 surfactant. Regeneration of the immobilized receptor surfaces was performed by pulse injection of 10 mM glycine, pH 1.5. KD values were determined by a global fit of binding curves to the Langmuir 1:1 binding model (BIAevaluation software v4.1).
(§4) The data in Table 7 are averages of 3 independent experiments each performed in duplicates.

[7] = biological target: T2, Human CD123-His (soluble human …); assay: as above
Procedure: as §3, §4

[8] = biological target: T3, Cynomolgus CD123-His (soluble …); assay: bifunctional ELISA, plate coated with cynomolgus monkey CD123, detection with human CD3-biotin and streptavidin-HRP
Procedure: as §1

B1: Control Bi-Specific Diabody (Control DART) (bispecific antibody)
chain 1: DVVMTQTPFSLPVSLGDQASISCRSSQSLVHSNGNTYLRWYLQKPGQSPKVLIYKVSNRFSGVPDRFSGSGSGTDFTLKISRVEAEDLGVYFCSQSTHVPWTFGGGTKLEIKGGGSGGGGEVQLVESGGGLVQPGGSLRLSCAASGFTFNTYAMNWVRQAPGKGLEWVARIRSKYNNYATYYADSVKDRFTISRDDSKNSLYLQMNSLKTEDTAVYYCVRHGNFGNSYVSWFAYWGQGTLVTVSSGGCGGGEVAALEKEVAALEKEVAALEKEVAALEK
chain 2: QAVVTQEPSLTVSPGGTVTLTCRSSTGAVTTSNYANWVQQKPGQAPRGLIGGTNKRAPWTPARFSGSLLGGKAALTITGAQAEDEADYYCALWYSNLWVFGGGTKLTVLGGGGSGGGGEVKLDETGGGLVQPGRPMKLSCVASGFTFSDYWMNWVRQSPEKGLEWVAQIRNKPYNYETYYSDSVKGRFTISRDDSKSSVYLQMNNLRVEDMGIYYCTGSYYGMDYWGQGTSVTVSSGGCGGGKVAALKEKVAALKEKVAALKEKVAALKE
notes: Bi-specific for fluorescein (FITC) and CD3; has no CD123 arm; also called FITC × CD3 control diabody
B1: no binding [1]; no binding (tested: 1 ug/mL) [2].

B2: Sequence-Optimized CD123 × CD3 Bi-Specific Diabody Having an Albumin-Binding Domain (DART-A w/ABD) (bispecific antibody)
chain 1: QAVVTQEPSLTVSPGGTVTLTCRSSTGAVTTSNYANWVQQKPGQAPRGLIGGTNKRAPWTPARFSGSLLGGKAALTITGAQAEDEADYYCALWYSNLWVFGGGTKLTVLGGGGSGGGGEVQLVQSGAELKKPGASVKVSCKASGYTFTDYYMKWVRQAPGQGLEWIGDIIPSNGATFYNQKFKGRVTITVDKSTSTAYMELSSLRSEDTAVYYCARSHLLRASWFAYWGQGTLVTVSSGGCGGGEVAALEKEVAALEKEVAALEKEVAALEKGGGSLAEAKVLANRELDKYGVSDYYKNLIDNAKSAEGVKALIDEILAALP
chain 2: DFVMTQSPDSLAVSLGERVTMSCKSSQSLLNSGNQKNYLTWYQQKPGQPPKLLIYWASTRESGVPDRFSGSGSGTDFTLTISSLQAEDVAVYYCQNDYSYPYTFGQGTKLEIKGGGSGGGGEVQLVESGGGLVQPGGSLRLSCAASGFTFSTYAMNWVRQAPGKGLEWVGRIRSKYNNYATYYADSVKDRFTISRDDSKNSLYLQMNSLKTEDTAVYYCVRHGNFGNSYVSWFAYWGQGTLVTVSSGGCGGGKVAALKEKVAALKEKVAALKEKVAALKE
With B2 the “EC50 of redirected killing of Kasumi-3 cells (LDH release, E:T = 10:1)” value [3] was 0.01 ng/mL, the “EC50 of redirected killing of Molm13 cells (LDH release, E:T = 10:1)” value [3] was 0.18 ng/mL and the “EC50 of redirected killing of RS4-11 cells (LDH release, E:T = 10:1)” value [3] was 0.5 ng/mL. For the same binder, the “EC50 of redirected killing of TF-1 cells (LDH release, E:T = 10:1)” value [3] was 0.46 ng/mL and the “EC50 of redirected killing of THP-1 cells (LDH release, E:T = 10:1)” value [3] was 0.24 ng/mL.

B3: Sequence-Optimized CD123 × CD3 Bi-Specific Diabody (DART-A) (bispecific antibody)
chain 1: QAVVTQEPSLTVSPGGTVTLTCRSSTGAVTTSNYANWVQQKPGQAPRGLIGGTNKRAPWTPARFSGSLLGGKAALTITGAQAEDEADYYCALWYSNLWVFGGGTKLTVLGGGGSGGGGEVQLVQSGAELKKPGASVKVSCKASGYTFTDYYMKWVRQAPGQGLEWIGDIIPSNGATFYNQKFKGRVTITVDKSTSTAYMELSSLRSEDTAVYYCARSHLLRASWFAYWGQGTLVTVSSGGCGGGEVAALEKEVAALEKEVAALEKEVAALEK
chain 2: B2 chain 2
notes: Two-chain heterodimer, the chains disulfide-bonded to one another; one CD123 site and one CD3 site; 58.9 kDa
Work on B3 yielded a Kd [4] of 0.14 nM, a Kd [5] of 0.27 nM and a Kd [6] of 0.27 nM. For the same binder, the koff [6] was 0.0004 s⁻¹, the kon [6] was 1.5e+06 M⁻¹ s⁻¹ and the Kd [7] was 0.13 nM. The koff [7] was 0.00019 s⁻¹, the kon [7] was 1.6e+06 M⁻¹ s⁻¹ and the “EC50 (read off the curve)” value [8] was ~40 ng/mL. The “EC50 (read off the curve)” value [2] was ~10 ng/mL.
